Measured values: paper PMC10686790, “Crystal structure of the GDSL family esterase EstL5 in complex with PMSF reveals a branch channel of the active site pocket” (Acta Biochimica et Biophysica Sinica, 2023)

B1: EstL5 (Geobacillus thermodenitrificans) (protein)
chain: ALVVQDQLFTAAKPSIEQKRPSANEAKKRDGEIDIVALGDSLTRGTGDESGKGYIGYMVDELRQQTDEPIRVTNLAIRGLRSDGLLRQLGQSEIQRQIAMADLIVMTIGGNDLFQGGEALEWNVKELDEAKRQYIANLDRIFALLRRLNSEAVIFAIGLYNPFSDLDDAKRTSAIVRDWNFASAEVAAHYPNIVAVPTFDLFALHVNDYLYSDHFHPNKEGYKRIGERVASLITLTEEDRQ
notes: without deduced signal peptide, N-terminal His tag, pET28b, E. coli BL21(DE3); two molecules in asymmetric unit
B2: EstL5 (Geobacillus thermodenitrificans; S207W) (protein)
chain: ALVVQDQLFTAAKPSIEQKRPSANEAKKRDGEIDIVALGDSLTRGTGDESGKGYIGYMVDELRQQTDEPIRVTNLAIRGLRSDGLLRQLGQSEIQRQIAMADLIVMTIGGNDLFQGGEALEWNVKELDEAKRQYIANLDRIFALLRRLNSEAVIFAIGLYNPFSDLDDAKRTSAIVRDWNFAWAEVAAHYPNIVAVPTFDLFALHVNDYLYSDHFHPNKEGYKRIGERVASLITLTEEDRQ
notes: as for B1
B3: EstL5 (Geobacillus thermodenitrificans; S207F) (protein)
chain: ALVVQDQLFTAAKPSIEQKRPSANEAKKRDGEIDIVALGDSLTRGTGDESGKGYIGYMVDELRQQTDEPIRVTNLAIRGLRSDGLLRQLGQSEIQRQIAMADLIVMTIGGNDLFQGGEALEWNVKELDEAKRQYIANLDRIFALLRRLNSEAVIFAIGLYNPFSDLDDAKRTSAIVRDWNFAFAEVAAHYPNIVAVPTFDLFALHVNDYLYSDHFHPNKEGYKRIGERVASLITLTEEDRQ
notes: as for B1

substrate: CCCC(=O)Oc1ccc([N+](=O)[O-])cc1; assay: purified protein; format: biochemical, Geobacillus thermodenitrificans; conditions: 20 mM Tris-HCl pH 8.0, 30°C

Protein | Km | kcat
B1 | 640 ± 2210 µM | 116.27±1.71 S-1
B2 | 790 ± 2670 µM | 86.78±1.03 S-1
B3 | 650 ± 1920 µM | 86.51±1.68 S-1
